Series [1] concerns the target DevRC (DevR C-terminal domain) (Mycobacterium tuberculosis H37Rv) (UniProt P9WMF9). Briefly: DNase I footprinting.
Series [2] concerns the target DevR (full-length) (Mycobacterium tuberculosis) (UniProt P9WMF9). As to the kind of experiment: DNase I footprinting.

Chain of DevRC (DevR C-terminal domain) (Mycobacterium tuberculosis H37Rv) (P9WMF9 141-217): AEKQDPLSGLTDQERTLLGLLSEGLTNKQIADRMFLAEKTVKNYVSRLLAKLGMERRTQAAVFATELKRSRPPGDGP
Chain of DevR (full-length) (Mycobacterium tuberculosis) (P9WMF9 whole entry): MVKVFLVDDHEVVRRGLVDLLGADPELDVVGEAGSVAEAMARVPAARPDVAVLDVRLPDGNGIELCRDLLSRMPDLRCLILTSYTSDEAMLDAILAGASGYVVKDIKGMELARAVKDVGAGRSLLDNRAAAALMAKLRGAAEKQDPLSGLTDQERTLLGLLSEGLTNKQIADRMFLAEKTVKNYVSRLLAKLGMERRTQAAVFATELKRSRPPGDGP

“TGGCTGCCGGGCCTTTCCCATCAACGGCTGCGGTCATCTATTAAGGATCGCGCGTCGACAGCCGCGGTGGCAGAGCACGAAGGCTCGCCAGCGGAGGACCTTTGGCCCTGCCTCAACGGCTCCTCGCAGCGGAGAGTGGTACTGACGGTTGCAGATAATCCGGATCACCGGGGAAGGCGCTGACCATG (double strand) [tgs1-Rv3131 intergenic DNA (3130F/3131R)]”: the binding result in series [1] and in series [2] was “binds” throughout.
